Reference: the DeepSol protein solubility set

Test: soluble on expression in E. coli; label from the status in PepcDB or PDB records

Sequence | soluble on expression in E. coli
MAHHHHHHMCFVARHKPALISGEAVVWLMERITGEELDVRSLENLCSAVVHLPVAVRTALRQELMEFVAFLSLQARELLQQVPAAQGGLSGCSDADAIQYFVSHVLELTVMLRTYPDLQWPPEFLAAVDACAASVEPLQEALLSAESSPVGLMVRLLEAPTGECKRVGLAMLREAANQCQSFATLQTFRFLLLMGDHGLQDVGTSRYLRDQFAKTAADVPPVQLSVALRCLGVATAGAATQGASGAGELRATVEGTAGNADLDDELERERLDAFLQFCVEVSRKHLSQGAPLRCVLATTESLHRLGCRDTAFFADVAAYIAAKHAAAPAERESADTATAVCAALGEDLLGEYPAVREFLLDVAQRGVRGESAMSPTQWMNLHDPSNALTPLTEQQQESWDIVEEMVRTRSDDVDALVRLAEKYMELLPFARPDDHKYFFGVCEEKVLKQDKLLKKCLDTIVDCGAVSRLSAQTIASILHSLAAIRFEYFASVKRFTSSISDEQWLLMEAAPLVQILTGMDKLSLRTPAVLRRIGGRLTEICRFLTPLDTAQAIHALQALGHNDAKLLGKLAAHAAALARRFDEASMAVLFSTPSIHRLMSTPEVARPLLLQASAKIQSQHRREKISAWVRRSGLPRELIDESTRRLQVTSGDARSSEVHLRLT | not soluble
METKCELNNTKKVANAFGLNEEDTNLLINAVDLDIKNNMQEISSELQQSEQSKQKQLGTTLQNLAKQNRIIK | not soluble
MGHHHHHHSHATGNVCIEEIDVDGKFIRLKNTSEQDQPMGGWEMIRKIGDTSVSYKYTSRYVLKAGQTVTIWAANAGVTASPPTDLIWKNQNSWGTGEDVKVILKNSQGEEVAQRSTVFKT | not soluble
MKLKRYEVLADEITASIQAGTRRAGDRLPSVRQTSASRGLSATTVFKAYYLLEARGLIRARDRSGYYVVGKPKALPPELEAGAPAESRRVDVDVSDRVLHVLQLTMRRDVVPFGSAFPHPSLFPHARLARAMASSVAALDPWSSVDDLSAGNTRLRRAIALRYLADGVQVRTEDIVITNGALEALNLCLGAVTRPGDSVLIESPTFYSALQSLERLGLRAIEVPAHPREGIELDALARAIDTHRPAACWLMTNFQNPLGSLMPEDKKRALVELLAARDVPLIEDDVYSELYFGAQRPLPAKAYDESGIVMSCSSFSKSLAPGWRIGWVLGGRYADRILRGKLALSLSTSAPSQAALATYLEHGGYDRHLRQLRQTLEQQRNQVMEAIARHFPPGTRTTHPDGGYFLWVALPPQVDALAVHRAALSLGVSTAPGPIFSVQDRFRHCLRLNYGHPFDARAQDGLATLGKLIARQC | not soluble
MCRLLGFATAGSNTNLNGVLGMQNVRDFRNLSEIHNDGWGAALITVPDESPYRRDGGAPTPETGTAIYKNTIAARHDPIFDELANTPARGGLWHLRLASSNLPLILENQQPFYANGLSFIHNGDISDDQGRNIITNRAFPVDPSIVQSTGGRSDSAIFFAVILQYIGFGFALDEAVAQAVRELRKSYPKSSYNCMIQSQDQFIALCAAGREVTSKRIVEIYDQYGRGEQARDYRVLRYRALGGNDDQSKGVVVASSGFDQRAEDGWTRLENDQMIVASNRTGEFRVRSI | soluble
MSLAKHIVELTDALSNKIAAGEVVERPASVVKELVENAIDAGSTVIDILVEEAGLNKITIIDNGSGIEEEDVATAFLRHATSKIKNEADLFRVHTLGFRGEALPSIASVSHLEMETSTGEAKGTTISLEGGKIIEQKSGHARKGTQIEVSQLFFNTPARLKYLKSLPTELGNITDILNRLALAHPDISFRFSHNGKPLLQTNGNGELRQVIAAIYGVSIAKKSVPVKAESLDFKISGYAVLPEVNRSNRNYISTIINGRFIKNFALVKAIQEGYHTLLPIGRFPIIVLQIEMDPIIVDVNVHPAKLEVRLSKEKELGQLISQMIKETFHKLQLIPDGEISKEGHHHHHH | soluble
MSLVEAISLWNEGVLAADKKDWKGALDAFSAVQDPHSRICFNIGCMYTILKNMTEAEKAFTRSINRDKHLAVAYFQRGMLYYQTEKYDLAIKDLKEALIQLRGNQLIDYKILGLQFKLFACEVLYNIAFMYAKKEEWKKAEEQLALATSMKSEPRHSKIDKAMECVWKQKLYEPVVIPVGKLFRPNERQVAQLAKKDYLGKATVVASVVDQDSFSGFAPLQPQAAEPPPRPKTPEIFRALEGEAHRVLFGFVPETKEELQVMPGNIVFVLKKGNDNWATVMFNGQKGLVPCNYLEPVELRIHPQQQPQEESSPQSDIPAPPSSKAPGRPQLSPGQKQKEEPKEVKLSVPMPYTLKVHYKYTVVMKTQPGLPYSQVRDMVSKKLELRLEHTKLSYRPRDSNELVPLSEDSMKDAWGQVKNYCLTLWCENTVGDQGFPDEPKESEKADANNQTTEPQLKKGSQVEALFSYEATQPEDLEFQEGDIILVLSKVNEEWLEGECKGKVGIFPKVFVEDCATTDLESTRREV | soluble
